From publication PMC4822050

T1: UHRF1 full-length (human, UniProt Q96T88 1-793)
T1 sequence: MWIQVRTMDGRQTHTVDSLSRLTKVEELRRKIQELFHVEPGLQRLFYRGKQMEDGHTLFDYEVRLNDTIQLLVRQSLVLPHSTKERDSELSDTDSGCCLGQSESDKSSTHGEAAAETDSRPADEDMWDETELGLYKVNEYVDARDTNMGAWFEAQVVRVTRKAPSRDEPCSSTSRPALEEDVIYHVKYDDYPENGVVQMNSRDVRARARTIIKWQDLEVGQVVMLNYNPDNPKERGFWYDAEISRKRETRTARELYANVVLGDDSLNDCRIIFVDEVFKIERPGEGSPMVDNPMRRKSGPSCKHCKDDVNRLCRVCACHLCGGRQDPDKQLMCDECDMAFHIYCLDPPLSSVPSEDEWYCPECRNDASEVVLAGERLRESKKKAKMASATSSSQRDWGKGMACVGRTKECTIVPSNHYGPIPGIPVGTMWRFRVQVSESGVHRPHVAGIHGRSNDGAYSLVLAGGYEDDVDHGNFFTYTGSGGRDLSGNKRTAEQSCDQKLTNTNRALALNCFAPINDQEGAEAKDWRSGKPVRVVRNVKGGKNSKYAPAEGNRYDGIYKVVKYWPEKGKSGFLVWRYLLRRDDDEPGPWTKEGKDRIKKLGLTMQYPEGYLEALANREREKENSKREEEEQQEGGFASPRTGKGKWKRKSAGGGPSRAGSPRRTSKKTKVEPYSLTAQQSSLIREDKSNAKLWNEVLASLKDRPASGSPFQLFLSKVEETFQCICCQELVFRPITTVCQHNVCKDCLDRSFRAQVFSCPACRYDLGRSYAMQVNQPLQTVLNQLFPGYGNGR

T2: SRA-Spacer (human, UniProt Q96T88 414-674)
T2 sequence: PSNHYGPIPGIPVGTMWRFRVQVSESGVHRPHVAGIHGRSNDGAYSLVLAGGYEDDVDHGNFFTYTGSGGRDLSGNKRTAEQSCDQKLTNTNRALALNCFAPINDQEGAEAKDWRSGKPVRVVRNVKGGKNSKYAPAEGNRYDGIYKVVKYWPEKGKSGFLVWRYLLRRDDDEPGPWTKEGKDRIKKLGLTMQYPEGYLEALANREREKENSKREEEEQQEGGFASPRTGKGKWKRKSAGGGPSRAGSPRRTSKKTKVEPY


Assays:
UHRF1 full-length = target: T1, UHRF1 full-length; assay: pull-down; H3 (1-17) peptide; affinity not affected; ITC: 10 mM HEPES pH 8.0, 100 mM NaCl, 18 C; EMSA: 20 mM HEPES pH 7.5, 100 mM NaCl, 8% glycerol, 1 mM DTT, on ice; pull-down: 20 mM HEPES-NaOH pH 8.0, 100 mM NaC
SRA-Spacer = target: T2, SRA-Spacer; assay: X-ray crystallography; 3.15 A; Spacer residues 617-674 not built; ITC: 10 mM HEPES pH 8.0, 100 mM NaCl, 18 C; EMSA: 20 mM HEPES pH 7.5, 100 mM NaCl, 8% glycerol, 1 mM DTT, on ice; pull-down: 20 mM HEPES-NaOH pH 8.0, 100 mM NaC

Row | Binder | binding result (UHRF1 full-length) | binding result (SRA-Spacer)
1 | biotin-hm-DNA 12 bp (pull-down) (dsDNA, 5-methyl-dC at position 6 of strand 1 (GAGGCXGCCTGC)) DNA 1: GAGGCCGCCTGC DNA 2: GCAGGCGGCCTC | binds | 
2 | 18-bp hm-DNA (crystal) (dsDNA, 5-methyl-dC at position 6 of strand 2 (GGGCCXGCAGGGACGATG)) DNA 1: CATCGTCCCTGCGGGCCC DNA 2: GGGCCCGCAGGGACGATG |  | binds
